Reference: the supplement of paper PMC10065799, “High-throughput profiling of sequence recognition by tyrosine kinases and SH2 domains using bacterial peptide display” (eLife, 2023)

Columns and labels:
c-Src SH2 = experiment: SH2 binding enrichment of the phosphorylated peptide, bacterial display (enrichment ratio); higher = better substrate or ligand; peptides without Tyr show the background
Grb2 SH2 = Grb2 SH2 (UniProt P62993); experiment: as above
SHP2-C SH2 = experiment: as above
MERTK = MERTK (UniProt Q12866); experiment: phosphorylation enrichment, bacterial display (enrichment ratio); higher = better substrate or ligand; peptides without Tyr show the background
Chain of MERTK (Q12866 whole entry, looked up): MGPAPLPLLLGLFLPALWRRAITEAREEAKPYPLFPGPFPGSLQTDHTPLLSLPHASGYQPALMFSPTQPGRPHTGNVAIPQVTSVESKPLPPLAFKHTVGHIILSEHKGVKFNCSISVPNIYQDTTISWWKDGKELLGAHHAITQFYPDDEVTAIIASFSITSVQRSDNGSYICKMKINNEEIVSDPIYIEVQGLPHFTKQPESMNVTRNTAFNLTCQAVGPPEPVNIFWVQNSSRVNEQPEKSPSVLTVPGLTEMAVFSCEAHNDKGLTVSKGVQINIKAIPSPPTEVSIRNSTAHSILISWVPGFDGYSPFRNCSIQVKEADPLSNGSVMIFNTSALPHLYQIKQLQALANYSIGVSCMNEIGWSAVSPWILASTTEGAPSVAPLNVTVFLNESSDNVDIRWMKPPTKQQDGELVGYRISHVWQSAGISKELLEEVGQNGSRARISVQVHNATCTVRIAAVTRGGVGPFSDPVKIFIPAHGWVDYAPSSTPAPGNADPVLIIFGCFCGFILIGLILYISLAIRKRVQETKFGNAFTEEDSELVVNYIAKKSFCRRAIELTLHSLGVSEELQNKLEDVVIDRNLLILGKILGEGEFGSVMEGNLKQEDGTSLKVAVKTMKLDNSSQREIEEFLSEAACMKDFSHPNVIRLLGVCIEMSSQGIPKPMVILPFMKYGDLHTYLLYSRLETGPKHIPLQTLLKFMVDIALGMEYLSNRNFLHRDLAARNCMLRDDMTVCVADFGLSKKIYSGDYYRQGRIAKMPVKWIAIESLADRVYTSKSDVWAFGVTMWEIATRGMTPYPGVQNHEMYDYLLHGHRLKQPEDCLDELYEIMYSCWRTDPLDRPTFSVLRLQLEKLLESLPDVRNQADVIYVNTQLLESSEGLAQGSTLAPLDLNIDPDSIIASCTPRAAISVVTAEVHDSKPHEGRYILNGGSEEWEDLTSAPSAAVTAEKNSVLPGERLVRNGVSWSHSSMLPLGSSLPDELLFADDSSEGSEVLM

Fer (mouse) = experiment: as above
c-Abl (mouse) = experiment: as above
c-Src = experiment: as above
FGFR1 = FGFR1 (UniProt P11362); experiment: as above
EPHB1 = EPHB1 (UniProt P54762); experiment: as above
Chain of EPHB1 (P54762 whole entry, looked up): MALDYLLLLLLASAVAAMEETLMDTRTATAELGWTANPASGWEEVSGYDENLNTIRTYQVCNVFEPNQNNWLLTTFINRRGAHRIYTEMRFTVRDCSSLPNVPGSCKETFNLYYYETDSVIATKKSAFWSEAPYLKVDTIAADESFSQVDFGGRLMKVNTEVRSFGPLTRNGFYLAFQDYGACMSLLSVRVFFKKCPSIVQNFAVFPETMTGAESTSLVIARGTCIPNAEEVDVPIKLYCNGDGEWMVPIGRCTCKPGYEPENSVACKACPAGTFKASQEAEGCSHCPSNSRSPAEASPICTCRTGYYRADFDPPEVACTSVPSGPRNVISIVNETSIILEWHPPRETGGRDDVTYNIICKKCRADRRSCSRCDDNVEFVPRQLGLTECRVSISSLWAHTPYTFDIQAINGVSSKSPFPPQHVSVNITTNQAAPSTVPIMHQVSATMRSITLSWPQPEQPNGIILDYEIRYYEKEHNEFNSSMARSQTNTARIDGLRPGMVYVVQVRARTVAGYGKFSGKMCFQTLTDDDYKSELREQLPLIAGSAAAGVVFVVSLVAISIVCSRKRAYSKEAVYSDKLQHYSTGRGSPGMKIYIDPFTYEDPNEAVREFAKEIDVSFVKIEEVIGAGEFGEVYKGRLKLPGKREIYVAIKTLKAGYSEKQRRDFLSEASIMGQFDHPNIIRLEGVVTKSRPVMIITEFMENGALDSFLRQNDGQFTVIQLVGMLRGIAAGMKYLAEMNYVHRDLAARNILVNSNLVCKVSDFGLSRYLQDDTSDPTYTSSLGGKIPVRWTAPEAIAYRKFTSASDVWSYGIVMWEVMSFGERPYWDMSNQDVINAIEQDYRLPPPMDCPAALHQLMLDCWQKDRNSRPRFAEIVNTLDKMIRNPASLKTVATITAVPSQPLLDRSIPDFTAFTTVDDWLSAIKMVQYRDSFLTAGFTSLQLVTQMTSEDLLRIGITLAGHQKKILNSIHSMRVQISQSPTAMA

Fyn = Fyn (UniProt P06241); experiment: as above
Chain of Fyn (P06241 whole entry, looked up): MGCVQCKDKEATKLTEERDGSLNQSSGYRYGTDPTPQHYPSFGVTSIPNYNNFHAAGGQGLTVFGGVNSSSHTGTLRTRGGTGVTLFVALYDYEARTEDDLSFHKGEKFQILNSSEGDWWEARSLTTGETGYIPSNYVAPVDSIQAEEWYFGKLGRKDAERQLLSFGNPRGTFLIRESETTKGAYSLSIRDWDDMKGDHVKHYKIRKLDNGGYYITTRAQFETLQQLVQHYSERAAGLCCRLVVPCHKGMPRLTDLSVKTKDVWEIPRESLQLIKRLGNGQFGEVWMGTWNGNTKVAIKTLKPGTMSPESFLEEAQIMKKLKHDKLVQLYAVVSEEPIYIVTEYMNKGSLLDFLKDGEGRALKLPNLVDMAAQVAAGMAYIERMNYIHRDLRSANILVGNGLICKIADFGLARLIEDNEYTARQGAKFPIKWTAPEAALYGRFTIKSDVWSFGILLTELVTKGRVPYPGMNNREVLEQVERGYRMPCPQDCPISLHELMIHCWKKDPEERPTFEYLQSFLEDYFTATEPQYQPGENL

Hck = Hck (UniProt P08631); experiment: as above
Chain of Hck (P08631 whole entry, looked up): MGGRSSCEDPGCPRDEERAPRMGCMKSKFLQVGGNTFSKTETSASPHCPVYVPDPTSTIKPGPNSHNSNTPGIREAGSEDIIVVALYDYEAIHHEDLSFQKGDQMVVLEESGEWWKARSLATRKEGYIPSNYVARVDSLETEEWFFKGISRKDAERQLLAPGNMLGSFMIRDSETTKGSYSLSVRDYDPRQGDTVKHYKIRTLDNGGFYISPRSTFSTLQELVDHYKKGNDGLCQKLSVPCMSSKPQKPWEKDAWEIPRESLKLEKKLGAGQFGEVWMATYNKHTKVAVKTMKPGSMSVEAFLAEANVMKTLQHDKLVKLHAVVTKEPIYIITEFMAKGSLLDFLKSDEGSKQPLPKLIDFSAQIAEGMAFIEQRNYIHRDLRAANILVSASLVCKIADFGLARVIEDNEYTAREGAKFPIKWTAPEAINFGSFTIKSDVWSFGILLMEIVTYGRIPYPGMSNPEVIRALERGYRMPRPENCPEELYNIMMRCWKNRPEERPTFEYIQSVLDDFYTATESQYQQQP

EPHB2 = EPHB2 (UniProt P29323); experiment: as above
AncSZ = experiment: as above
Fes = Fes (UniProt P07332); experiment: as above
Chain of Fes (P07332 whole entry, looked up): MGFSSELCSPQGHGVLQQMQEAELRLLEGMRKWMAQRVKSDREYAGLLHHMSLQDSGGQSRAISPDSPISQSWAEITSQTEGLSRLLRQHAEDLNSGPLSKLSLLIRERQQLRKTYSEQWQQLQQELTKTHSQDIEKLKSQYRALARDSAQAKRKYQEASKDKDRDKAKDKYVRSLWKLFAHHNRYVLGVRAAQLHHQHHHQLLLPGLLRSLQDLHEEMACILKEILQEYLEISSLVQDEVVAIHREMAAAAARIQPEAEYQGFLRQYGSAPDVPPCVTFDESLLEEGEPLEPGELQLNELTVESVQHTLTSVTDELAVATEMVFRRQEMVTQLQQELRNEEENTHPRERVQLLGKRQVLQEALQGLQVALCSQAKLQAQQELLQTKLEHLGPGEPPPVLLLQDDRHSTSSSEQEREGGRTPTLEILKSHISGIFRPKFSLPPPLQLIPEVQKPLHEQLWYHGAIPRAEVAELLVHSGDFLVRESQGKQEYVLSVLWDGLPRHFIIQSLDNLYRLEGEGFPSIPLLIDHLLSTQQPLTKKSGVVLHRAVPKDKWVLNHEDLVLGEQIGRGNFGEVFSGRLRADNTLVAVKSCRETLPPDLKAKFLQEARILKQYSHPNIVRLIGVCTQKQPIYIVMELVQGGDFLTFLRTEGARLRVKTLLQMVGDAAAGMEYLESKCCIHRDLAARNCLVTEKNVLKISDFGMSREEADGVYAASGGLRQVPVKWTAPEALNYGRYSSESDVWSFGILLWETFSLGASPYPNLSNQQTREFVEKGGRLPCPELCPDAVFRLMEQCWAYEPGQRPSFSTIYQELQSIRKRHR

FGFR3 = FGFR3 (UniProt P22607); experiment: as above
Chain of FGFR3 (P22607 whole entry, looked up): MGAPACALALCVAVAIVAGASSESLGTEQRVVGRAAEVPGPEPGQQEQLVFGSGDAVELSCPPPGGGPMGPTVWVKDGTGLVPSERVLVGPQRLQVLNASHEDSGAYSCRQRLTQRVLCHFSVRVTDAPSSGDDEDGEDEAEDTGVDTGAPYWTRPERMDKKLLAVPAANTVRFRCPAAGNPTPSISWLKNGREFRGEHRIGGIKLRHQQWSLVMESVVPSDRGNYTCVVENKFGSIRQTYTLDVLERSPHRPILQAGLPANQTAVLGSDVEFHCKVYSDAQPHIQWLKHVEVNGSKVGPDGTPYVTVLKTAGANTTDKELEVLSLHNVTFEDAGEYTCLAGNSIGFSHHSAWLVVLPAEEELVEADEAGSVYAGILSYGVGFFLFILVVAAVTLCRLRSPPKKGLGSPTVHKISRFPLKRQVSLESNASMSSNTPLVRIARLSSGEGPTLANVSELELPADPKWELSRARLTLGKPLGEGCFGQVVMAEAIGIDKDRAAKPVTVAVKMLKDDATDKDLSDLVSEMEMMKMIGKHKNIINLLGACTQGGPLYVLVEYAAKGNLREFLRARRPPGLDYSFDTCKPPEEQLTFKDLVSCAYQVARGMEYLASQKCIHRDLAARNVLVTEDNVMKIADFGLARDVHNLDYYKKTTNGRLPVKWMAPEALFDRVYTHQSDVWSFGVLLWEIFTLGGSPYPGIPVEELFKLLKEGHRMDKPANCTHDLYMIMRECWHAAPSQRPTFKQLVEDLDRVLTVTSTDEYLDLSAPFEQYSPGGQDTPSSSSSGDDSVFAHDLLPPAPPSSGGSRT

Jak2 = Jak2 (UniProt O60674); experiment: as above
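For SH2 binding enrichment of the phosphorylated peptide, bacterial display in this document: peptide library displayed on the E. coli surface as eCPX fusions, selected cells deep-sequenced, score is each peptide's frequency after selection divided by its frequency in the input.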
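For phosphorylation enrichment, bacterial display in this document: 11-residue human phosphosite peptides and single-mutation variants displayed on the E. coli surface, counted by deep sequencing, each peptide's frequency after selection divided by its frequency in the unselected input library; frequency after pTyr selection over input frequency; kinase dosed for 20-30% of maximal phosphorylation in three min.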

Chain of Grb2 SH2 (P62993 whole entry, looked up): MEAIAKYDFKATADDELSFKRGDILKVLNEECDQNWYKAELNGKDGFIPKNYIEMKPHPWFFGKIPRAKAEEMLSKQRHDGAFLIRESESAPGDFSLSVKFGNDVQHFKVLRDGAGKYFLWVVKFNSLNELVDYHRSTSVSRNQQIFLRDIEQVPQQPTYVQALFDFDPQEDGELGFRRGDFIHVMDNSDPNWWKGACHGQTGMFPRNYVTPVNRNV

| Sequence | SH2 binding enrichment (c-Src SH2) | SH2 binding enrichment (Grb2 SH2) | SH2 binding enrichment (SHP2-C SH2) | phosphorylation enrichment (MERTK) | phosphorylation enrichment (Fer (mouse)) | phosphorylation enrichment (c-Abl (mouse)) | phosphorylation enrichment (c-Src) | phosphorylation enrichment (FGFR1) | phosphorylation enrichment (EPHB1) | phosphorylation enrichment (Fyn) | phosphorylation enrichment (Hck) | phosphorylation enrichment (EPHB2) | phosphorylation enrichment (AncSZ) | phosphorylation enrichment (Fes) | phosphorylation enrichment (FGFR3) | phosphorylation enrichment (Jak2) |
| --- | --- | --- | --- | --- | --- | --- | --- | --- | --- | --- | --- | --- | --- | --- | --- | --- |
| GREFIYVDPMQ [PDGFRA_Y574_H570R_YF] | 0.524 | 1.08 | 0.596 | 2 | 0.589 | 3.31 | 1.36 | 7.2 | 3.28 | 0.906 | 1.2 | 5.79 | 1.03 | 0.729 | 4.31 | 0.703 |
| GGDQPYSGAGD [TYRO3_Y828_R824G] | 0.596 | 0.872 | 0.64 | 0.408 | 0.436 | 0.562 | 0.432 | 0.485 | 0.501 | 0.453 | 0.474 | 0.481 | 0.673 | 0.791 | 0.698 | 0.775 |
| SVVVPHEPPEV [TP53_Y220_Y220H] | 0.581 | 0.956 | 0.902 | 0.41 | 0.538 | 0.703 | 0.396 | 0.53 | 0.51 | 0.466 | 0.46 | 0.46 | 0.763 | 0.949 | 0.696 | 0.755 |
| CETMEYLESKQ [BTK_Y511_A508T] | 0.427 | 0.63 | 0.555 | 0.527 | 0.705 | 0.98 | 0.531 | 0.688 | 0.737 | 0.578 | 0.677 | 0.734 | 1.6 | 1.56 | 0.966 | 1.43 |
| GIVKAYYVHAR [AIPL1_Y267_R270H] | 0.982 | 1.23 | 1.05 | 0.436 | 0.452 | 0.569 | 0.538 | 0.482 | 0.498 | 0.418 | 0.412 | 0.51 | 0.732 | 0.736 | 0.514 | 0.866 |
| ISISPYPAILH [IFT80_Y588_T586S] | 0.408 | 0.724 | 0.45 | 0.354 | 0.418 | 0.557 | 0.358 | 0.341 | 0.428 | 0.343 | 0.377 | 0.401 | 1.01 | 0.961 | 0.547 | 0.765 |
| GPGGDYAAMGA [ERBB3_Y1276] | 1.09 | 0.771 | 0.863 | 0.511 | 0.488 | 0.572 | 0.494 | 0.776 | 1.3 | 0.414 | 0.527 | 0.903 | 0.6 | 0.766 | 0.605 | 0.604 |
| IGCHAYGDQFR [IDH1_Y135_R132C_YF] | 0.516 | 0.825 | 0.577 | 0.497 | 0.55 | 0.82 | 0.611 | 0.529 | 0.516 | 0.495 | 0.51 | 0.532 | 0.933 | 1.04 | 0.659 | 0.933 |
| QFRFIYMAVQH [PTPN11_Y515_YF] | 0.58 | 0.948 | 0.635 | 0.858 | 1.3 | 1.73 | 1.97 | 0.544 | 1.06 | 0.939 | 1.42 | 0.704 | 2.5 | 2.52 | 1.22 | 2.21 |
| KRLAVYQAGAR [APOE_Y180] | 0.879 | 1.1 | 1.05 | 0.346 | 0.333 | 0.398 | 0.378 | 0.403 | 0.316 | 0.405 | 0.335 | 0.399 | 0.495 | 0.504 | 0.365 | 0.464 |
| LIQRNYKLAAQ [ALPK2_Y1975] | 0.399 | 0.961 | 0.649 | 0.72 | 0.576 | 0.773 | 0.49 | 0.937 | 1.13 | 0.571 | 0.833 | 0.604 | 1.19 | 1.21 | 0.962 | 0.44 |
| KNKNRSKNILP [PTPN11_Y279_Y279S] | 0.374 | 0.777 | 0.39 | 0.561 | 0.486 | 0.771 | 0.564 | 0.531 | 0.686 | 0.621 | 0.561 | 0.568 | 0.732 | 0.749 | 0.627 | 0.632 |
| STEAIYRRYSK [SH3PXD2B_Y42] | 0.557 | 0.836 | 0.664 | 0.466 | 0.341 | 0.709 | 0.52 | 0.41 | 0.302 | 0.456 | 0.425 | 0.441 | 0.511 | 0.418 | 0.425 | 0.534 |
| SSYPDYLAAVD [GLB1_Y154_D151Y] | 0.498 | 0.815 | 0.473 | 0.415 | 0.495 | 0.653 | 0.451 | 0.647 | 0.518 | 0.495 | 0.515 | 0.554 | 1.36 | 1.05 | 0.746 | 0.994 |
| CTTIHYNYMCD [TP53_Y234_N239D] | 8.55 | 1.16 | 2.32 | 0.426 | 0.465 | 0.545 | 0.422 | 0.57 | 0.647 | 0.405 | 0.469 | 0.515 | 0.796 | 0.898 | 0.631 | 0.625 |
| RGNMFYENSFA [EGFR_Y113_YF] | 3.16 | 18.9 | 1.26 | 0.727 | 2.57 | 0.533 | 0.922 | 0.785 | 0.483 | 0.997 | 0.479 | 0.663 | 1.21 | 0.836 | 0.744 | 1.01 |
| SREALYNETDP [CACNA1A_Y794_M797T] | 0.764 | 0.89 | 0.641 | 0.625 | 0.663 | 0.996 | 0.722 | 0.559 | 0.67 | 0.624 | 0.739 | 0.642 | 1.16 | 1.37 | 0.815 | 1.14 |

| Sequence | SH2 binding enrichment (c-Src SH2) | SH2 binding enrichment (Grb2 SH2) | SH2 binding enrichment (SHP2-C SH2) | phosphorylation enrichment (MERTK) | phosphorylation enrichment (Fer (mouse)) | phosphorylation enrichment (c-Abl (mouse)) | phosphorylation enrichment (c-Src) | phosphorylation enrichment (FGFR1) | phosphorylation enrichment (EPHB1) | phosphorylation enrichment (Fyn) | phosphorylation enrichment (Hck) | phosphorylation enrichment (EPHB2) | phosphorylation enrichment (AncSZ) | phosphorylation enrichment (Fes) | phosphorylation enrichment (FGFR3) | phosphorylation enrichment (Jak2) |
| --- | --- | --- | --- | --- | --- | --- | --- | --- | --- | --- | --- | --- | --- | --- | --- | --- |
| VAVVQYSGTGQ [COL6A1_Y878] | 0.451 | 0.767 | 0.413 | 0.412 | 0.387 | 0.592 | 0.451 | 0.487 | 0.479 | 0.357 | 0.438 | 0.463 | 0.517 | 0.71 | 0.564 | 0.576 |
| TVFENYVADIK [RHOA_Y42_E47K] | 0.538 | 0.846 | 0.607 | 0.442 | 0.495 | 0.699 | 0.536 | 0.48 | 0.845 | 0.534 | 0.534 | 0.676 | 0.922 | 0.878 | 0.688 | 0.889 |
| RFVTRSIFNRE [HLA-DQB1_Y62_Y62S_YF] | 0.39 | 0.72 | 0.588 | 0.577 | 0.652 | 0.402 | 0.578 | 0.472 | 0.61 | 0.498 | 0.632 | 0.718 | 1.14 | 0.827 | 0.711 | 0.723 |
| GMTLSYLFREP [NDUFS8_Y74] | 0.915 | 1.23 | 1.4 | 0.365 | 0.367 | 0.652 | 0.505 | 0.606 | 0.501 | 0.397 | 0.509 | 0.579 | 0.763 | 0.877 | 0.633 | 0.848 |
| GEHSIYSTVNN [CD55_Y266_C267S] | 0.718 | 0.651 | 1.59 | 7.23 | 14.5 | 6.92 | 7.42 | 0.584 | 9.99 | 10.3 | 10.9 | 13 | 0.792 | 1.5 | 0.52 | 0.536 |
| CNSFQYGGGGG [NPPA_Y151_R150Q] | 0.531 | 0.845 | 0.806 | 0.447 | 0.512 | 0.731 | 0.532 | 0.409 | 0.501 | 0.436 | 0.497 | 0.452 | 0.794 | 0.919 | 0.549 | 0.716 |
| ENFDDYMKEVG [FABP4_Y20] | 0.802 | 1.04 | 0.791 | 0.396 | 0.687 | 0.707 | 0.539 | 0.569 | 0.579 | 0.496 | 0.527 | 0.623 | 1.23 | 1.22 | 0.699 | 1.06 |
| ATHSGYRLNDY [CLDN14_Y233] | 0.49 | 0.709 | 0.623 | 0.393 | 0.395 | 0.556 | 0.493 | 0.503 | 0.518 | 0.389 | 0.397 | 0.491 | 0.568 | 0.739 | 0.491 | 0.706 |
| VTQEQYELFCE [CBL_Y368_YF] | 0.668 | 0.943 | 0.747 | 0.624 | 0.737 | 3.12 | 0.744 | 0.543 | 0.86 | 0.599 | 0.646 | 0.848 | 1.4 | 1.24 | 0.957 | 1.54 |
| DMLYQYLKQIE [RPAP3_Y569] | 0.537 | 1.15 | 0.635 | 5.97 | 6.39 | 0.602 | 1.43 | 3.07 | 3.36 | 1.19 | 5.42 | 1.96 | 1.23 | 0.887 | 2.4 | 0.83 |
| CTHDLYMFMRE [FGFR3_Y724_I726F] | 0.436 | 0.71 | 0.636 | 1.9 | 0.994 | 0.992 | 2.37 | 1.76 | 2.23 | 0.584 | 1.06 | 1.04 | 1.43 | 1.56 | 1.45 | 1.34 |
| VFAADYFKLLG [ROR2_Y645_YF] | 0.527 | 0.983 | 0.638 | 0.394 | 0.467 | 0.498 | 0.562 | 7.25 | 0.52 | 0.417 | 0.439 | 0.403 | 0.819 | 0.643 | 4.37 | 7.31 |
| YEREQYADRAR [RBM4_Y355] | 0.591 | 0.881 | 0.727 | 0.29 | 0.441 | 0.531 | 0.338 | 0.495 | 0.383 | 0.37 | 0.439 | 0.432 | 0.701 | 0.707 | 0.534 | 0.575 |
| VGTKQYMAPEV [ACVRL1_Y375_R374Q] | 0.485 | 0.832 | 0.572 | 0.469 | 0.42 | 0.674 | 0.598 | 0.458 | 0.466 | 0.432 | 0.429 | 0.653 | 0.678 | 0.754 | 0.51 | 0.738 |
| SKAYAYVHFDS [PABPC5_Y149_G146A] | 4.66 | 0.893 | 14.2 | 0.389 | 0.477 | 0.789 | 0.365 | 0.445 | 0.549 | 0.394 | 0.398 | 0.461 | 0.967 | 1.19 | 0.803 | 1.05 |
| AFPGEYIPTVF [RAC1_Y32] | 0.544 | 1.05 | 0.723 | 0.474 | 0.509 | 0.689 | 0.476 | 0.618 | 0.444 | 0.381 | 0.492 | 0.476 | 0.776 | 0.828 | 0.617 | 0.924 |
